In the RNAGym collection of RNA variant scans (doi:10.1073/pnas.2313332121):
Variants at the floor of the assay were thinned out.

B1: TPR 5TU (parent)
chain: GGAUCUUCUCGAUCUAACAAAAAAGACAAAUCUGCCACAAAGCUUGAGAGCAUCUUCGGAUGCAGAGGCGGCAGCCUUCGGUGGCGCGAUAGCGCCAACGUUCUCAACUAUGACACGCAAAACGCGUGCUCCGUUGAAUGGAGUUUAUCAUG

Variants of: B1
Assay: polymerase ribozyme fitness, log enrichment relative to wild type (log ratio); higher = more active; in vitro selection for triplet polymerase activity
How it was run: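 The heterodimeric triplet polymerase ribozyme's subunits were each mutagenized into PCR-built libraries and transcribed. Every library was selected once, in triplicate, by annealing with a biotinylated primer, the partner subunit and triplets, incubating frozen at −7 °C, gel-excising extended constructs, capturing on streptavidin beads and running RT-PCR. Input and output libraries were Illumina-sequenced, with genotypes kept only at ≥10 input reads and ≥1 read per output. Fitness, from inverse-variance-weighted replicate averages, is the base-2 logarithm of genotype enrichment over wild-type enrichment.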

| Variant | polymerase ribozyme fitness (log ratio) |
| --- | --- |
| G25A A49G C96G | -3.91 |
| A24G U33G C87U U101G G140C | ≤ -4.2 |
| A24U U31G A52C G65A G84C C87U A119G | ≤ -4.2 |
| A24G U61C U82G C95U | ≤ -4.2 |
| G25C C57A C87U A97G | -3.23 |
| A24U A41U G86U | -3.62 |
| G25C C75A U104A A119U U134G U135A | ≤ -4.2 |
| A24U A28C G59C G86C A122U G133C | ≤ -4.2 |
| A24G C32A U33G G65A G80A A98U G126C U145G A147C | ≤ -4.2 |
| G25A G48U U61G C96A A97G C132G | ≤ -4.2 |
| A24G G86U | -3.77 |
| A24U C125A | -0.572 |
| A24U C93A G112A C114U C116G A119G | ≤ -4.2 |
| A24G G62U G94A C116G A120U U127A U135C | ≤ -4.2 |
| A24C U53C C118U A142C | ≤ -4.2 |
| A24U U82A C96G | 0.476 |
| A24U C87U | -0.48 |
| A24U C87A | ≤ -4.2 |
| A24U C27G G50C C54G A64C G84A G86C C118G C149U | ≤ -4.2 |
| A24C U55A C57U G58U A66G G68C C85A C149G | ≤ -4.2 |
| G25C C36U C57A | -3.99 |

| Variant | polymerase ribozyme fitness (log ratio) |
| --- | --- |
| G25C A52C U56A C85U G124C | ≤ -4.2 |
| A24U A52U C85U | -1.43 |
| A24G U53A C95U | ≤ -4.2 |
| A24G C87A | ≤ -4.2 |
| A24G C96G A137U | ≤ -4.2 |
| A24G C35U G48U A52U C125A | ≤ -4.2 |
| A24U G34A G92C A137G | -4.07 |
| G25C A30U U78C C96G | -3.97 |
| A24G C54A | -3.54 |
| A24C A73C G86U C96A | ≤ -4.2 |
| A24U G68C G83U A107C | ≤ -4.2 |
| A24G G80C G83C A115U U134A | ≤ -4.2 |
| A24C C54G C76U U78A C105A A147C | ≤ -4.2 |
| A24U C32A | -3.85 |
| A24C G68U C75G C76G A110G A121U | ≤ -4.2 |
| A24C A47G C79U G94C C125U | ≤ -4.2 |
| G25C C54A C76U G88A | ≤ -4.2 |
| A24U G94A G143U | -3.4 |
| A24C G34C G50C U134A | ≤ -4.2 |
| A24U G42C G84A C93U G94C C99A A122G | ≤ -4.2 |
| A24U C93U A119C | -1.98 |

| Variant | polymerase ribozyme fitness (log ratio) |
| --- | --- |
| A24C A30C A41U A66U U82C G86U G94U C116A | ≤ -4.2 |
| A24G G59C | -3.7 |
| A24U U61A C93A C116G | -4.17 |
| A24U C76G A138G | ≤ -4.2 |
| A24U A41C U45A G46C A49C G86A | -3.99 |
| A24U C131U | 2.4 |
| G25A U33A G83C A91U G94A A121U C131U | ≤ -4.2 |
| G25C A26U C87G A121U C129G U151A | ≤ -4.2 |
| A24U G58C G88A C93U A121G | ≤ -4.2 |
| A23U U55A G88A C114A G136C | ≤ -4.2 |
| A24C C32U A49C C85G G86A A91G C123G C132A | ≤ -4.2 |
| G25C C27A A28G A40U C149A | ≤ -4.2 |
| A24C G86U U90A U101A A106G A113U A120U G126A | ≤ -4.2 |
| A24U G140A | -4.12 |
| A24G G94C | -3.21 |
| A24U C38U | 0.361 |
| A24G A97U G140U | ≤ -4.2 |
| G25A A89U C95G | -4.2 |
| A24C C72A C103A U109G G126U | ≤ -4.2 |
| G25C G46C C85G C87U G124C C125U U146C | ≤ -4.2 |
| G25C C57U C123A C125G | -2.33 |

| Variant | polymerase ribozyme fitness (log ratio) |
| --- | --- |
| A24U G50A C108G C125A G141C | ≤ -4.2 |
| A24C G74C U90G C99G U127A | ≤ -4.2 |
| A24U C149G | -3.88 |
| A24C G42C G92U C125G | ≤ -4.2 |
| A24U A60U G83A | -1.22 |
| A24G U31A U82C U101G | ≤ -4.2 |
| A24U G80U C123G U146G | -1.39 |
| A24U G80C G86U C125G A137C | ≤ -4.2 |
| A24C C118U C125U | ≤ -4.2 |
| A24G A29C A37G G46U C57U C76U A122U A138G U144G U151C | ≤ -4.2 |
| G25C C38A G50C G92C U130G | ≤ -4.2 |
| A24C A37G G48C C63U U78G G88C U144G | ≤ -4.2 |
| G25A A64G G88A | ≤ -4.2 |
| G25C C72U A91G A119U U127A | ≤ -4.2 |
| A24U C43A A60C C96A A119U G126A | ≤ -4.2 |
| A24U G42A C108U | 1.52 |
| A24U U45G G92C | -2.88 |
| A23U U31C C87G U104G | ≤ -4.2 |
| A24C U53A U55A A98U G126A C149G | ≤ -4.2 |
| A24G C54U C95U A97C A119U C125U | ≤ -4.2 |
